# Measurements from article PMC2188614 (The Journal of Experimental Medicine, 1990).
# Molecular target: the molecule itself
# Assay: 2-D nonreducing/reducing SDS-PAGE
protein,measurement,value
"CD3 zeta (transfected cDNA) (natural protein, murine, UniProt P24161-1 22-164, looked up) QSFGLLDPKLCYLLDGILFIYGVIITALYLRAKFSRSAETAANLQDPNQLYNELNLGRREEYDVLEKKRARDPEMGGKQQRRRNPQEGVYNALQKDKMAEAYSEIGTKGERRRGKGHDGLYQGLSTATKDTYDALHMQTLAPR",stoichiometry N,2
"CD3 zeta (endogenous) (natural protein, murine, UniProt P24161-1 22-164, looked up) QSFGLLDPKLCYLLDGILFIYGVIITALYLRAKFSRSAETAANLQDPNQLYNELNLGRREEYDVLEKKRARDPEMGGKQQRRRNPQEGVYNALQKDKMAEAYSEIGTKGERRRGKGHDGLYQGLSTATKDTYDALHMQTLAPR",stoichiometry N,2
"CD3 eta (transfected cDNA) (natural protein, murine, UniProt P24161-2 22-206, looked up) QSFGLLDPKLCYLLDGILFIYGVIITALYLRAKFSRSAETAANLQDPNQLYNELNLGRREEYDVLEKKRARDPEMGGKQQRRRNPQEGVYNALQKDKMAEAYSEIGTKGERRRGKGHDGLYQDSHFQAVQFGNRREREGSELTRTLGLRARPKGESTQQSSQSCASVFSIPTLWSPWPPSSSSQL",stoichiometry N,2
